Test results as given in article PMC7243271.
Like-named read-outs stand apart in the source and are kept apart here.

Columns and labels:
Test in all cases: SEC-MALS
[1] = biological target: Nup358-KLC2-fusion protein (human | mouse) (UniProt P49792)
[2] = biological target: Nup358-min (residues 2147–2240 of human Nup358) (human) (UniProt P49792)
[3] = biological target: Nup358/W2224A/D2225A-KLC2-fusion protein (human | mouse) (UniProt P49792)
[4] = biological target: Nup358-KLC2-fusion protein (human | mouse) (UniProt P49792); remark: listed apart in the source

Measured: stoichiometry N

BicD2-CTD (residues 715–804 of human BicD2) (domain or fragment)
1: [1] | [2] | [3] | [4]
